According to patent publication US20240060126:

What was measured:
[1] = target: MspA-((Del-L74/G75/D118/L119)D56F/E59R/L88N/D90N/D91N/Q126R/D134R/E139K)8
[2] = target: MspA-((Del-L74/G75/D118/L119)D56L/E59L/L88N/D90N/D91N/Q126R/D134R/E139K)8
[3] = target: MspA-((Del-L74/G75/D118/L119)D56N/E57N/E59N/L88N/D90N/D91N/Q126R/D134R/E139K)8
[4] = target: MspA-((Del-L74/G75/D118/L119)D56N/E59F/L88N/D90N/D91N/Q126R/D134R/E139K)8
[5] = target: MspA-((Del-L74/G75/D118/L119)D56N/E59Q/L88N/D90N/D91N/Q126R/D134R/E139K)8
[6] = target: MspA-((Del-L74/G75/D118/L119)D56N/E59R/L88N/D90N/D91N/Q126R/D134R/E139K)8
[7] = target: MspA-((Del-L74/G75/D118/L119)D56N/E59S/L88N/D90N/D91N/Q126R/D134R/E139K)8
[8] = target: MspA-((Del-L74/G75/D118/L119)D56N/E59T/L88N/D90N/D91N/Q126R/D134R/E139K)8
[9] = target: MspA-((Del-L74/G75/D118/L119)E59F/L88N/D90N/D91N/Q126R/D134R/E139K)8
[10] = target: MspA-((Del-L74/G75/D118/L119)E59Y/L88N/D90N/D91N/Q126R/D134R/E139K)8
[11] = target: MspA-(D56N/E59R/G75S/G77S/L88N/D90N/D91N/D118R/Q126R/D134R/E139K)8
[12] = target: MspA-(G75S/G77S/L88N/D90N/D91N/D118R/Q126R/D134R/E139K)8

B1: T4 Dda-E94C/C109A/C136A/A360C (SEQ ID NO: 24 with mutations E94C/C109A/C136A/A360C) (protein)
chain: MTFDDLTEGQKNAFNIVMKAIKEKKHHVTINGPAGTGKTTLTKFIIEALISTGETGIILAAPTHAAKKILSKLSGKEASTIHSILKINPVTYECNVLFEQKEVPDLAKARVLICDEVSMYDRKLFKILLSTIPPWATIIGIGDNKQIRPVDPGENTAYISPFFTHKDFYQCELTEVKRSNAPIIDVATDVRNGKWIYDKVVDGHGVRGFTGDTALRDFMVNYFSIVKSLDDLFENRVMAFTNKSVDKLNSIIRKKIFETDKDFIVGEIIVMQEPLFKTYKIDGKPVSEIIFNNGQLVRIIEAEYTSTFVKARGVPGEYLIRHWDLTVETYGDDEYYREKIKIISSDEELYKFNLFLGKTCETYKNWNKGGKAPWSDFWDAKSQFSKVKALPASTFHKAQGMSVDRAFIYTPCIHYADVELAQQLLYVGVTRGRYDVFYV
Which results are given for B1?
Average Signal to Noise (S2N) [1]: 11.7; Mean Current Range [1]: 15.6 pA; Mean Noise of the Signal [1]: 1.33; Median Current Range [1]: 15.6 pA; Median Noise of the Signal [1]: 1.28; Median S2N [1]: 12.3; Percentage of complement slipping forwards [1]: 0.38%; Standard Deviation of S2N [1]: 0.59; Standard Deviation of the Current Range [1]: 1.92 pA; Standard Deviation of the Noise of the Signal [1]: 0.24; slips forward per kilobase [1]: less than 5 slips forward per kilobase; slips forward per kilobase [2]: less than 5 slips forward per kilobase; Average Signal to Noise (S2N) [3]: 13; Mean Current Range [3]: 19 pA; Mean Noise of the Signal [3]: 1.46; Median Current Range [3]: 19.2 pA; Median Noise of the Signal [3]: 1.35; Standard Deviation of the Current Range [3]: 2.07 pA; Standard Deviation of the Noise of the Signal [3]: 0.36; Average Signal to Noise (S2N) [4]: 12.8; Mean Current Range [4]: 15.8 pA; Mean Noise of the Signal [4]: 1.24; Median Current Range [4]: 15.7 pA; Median Noise of the Signal [4]: 1.17; Median S2N [4]: 12.8; Percentage of complement slipping forwards [4]: 0.25%; Standard Deviation of S2N [4]: 0.12; Standard Deviation of the Current Range [4]: 1.86 pA; Standard Deviation of the Noise of the Signal [4]: 0.27; Average Signal to Noise (S2N) [5]: 12.8; Mean Current Range [5]: 15.6 pA; Mean Noise of the Signal [5]: 1.22; Median Current Range [5]: 15.5 pA; Median Noise of the Signal [5]: 1.16; Median S2N [5]: 13.3; Percentage of complement slipping forwards [5]: 0.55%; Standard Deviation of S2N [5]: 0.86; Standard Deviation of the Current Range [5]: 1.72 pA; Standard Deviation of the Noise of the Signal [5]: 0.25; Average Signal to Noise (S2N) [6]: 12.5; Mean Current Range [6]: 15.3 pA; Mean Noise of the Signal [6]: 1.22; Median Current Range [6]: 15.3 pA; Median Noise of the Signal [6]: 1.17; Percentage of complement slipping forwards [6]: 0.49%; Standard Deviation of the Current Range [6]: 1.66 pA; Standard Deviation of the Noise of the Signal [6]: 0.2; slips forward per kilobase [6]: less than 5 slips forward per kilobase; Average Signal to Noise (S2N) [7]: 11.4; Mean Current Range [7]: 15 pA; Mean Noise of the Signal [7]: 1.31; Median Current Range [7]: 14.9 pA; Median Noise of the Signal [7]: 1.27; Median S2N [7]: 11.3; Percentage of complement slipping forwards [7]: 0.43%; Standard Deviation of S2N [7]: 0.29; Standard Deviation of the Current Range [7]: 1.7; Standard Deviation of the Noise of the Signal [7]: 0.23; Average Signal to Noise (S2N) [8]: 12.3; Mean Current Range [8]: 16 pA; Mean Noise of the Signal [8]: 1.31; Median Current Range [8]: 16.1 pA; Median Noise of the Signal [8]: 1.26; Median S2N [8]: 12.6; Percentage of complement slipping forwards [8]: 0.8%; Standard Deviation of S2N [8]: 0.87; Standard Deviation of the Current Range [8]: 1.87 pA; Standard Deviation of the Noise of the Signal [8]: 0.24; Average Signal to Noise (S2N) [9]: 11.4; Mean Current Range [9]: 15.7 pA; Mean Noise of the Signal [9]: 1.37; Median Current Range [9]: 15.7 pA; Median Noise of the Signal [9]: 1.33; Median S2N [9]: 11.8; Percentage of complement slipping forwards [9]: 0.3%; Standard Deviation of S2N [9]: 0.64; Standard Deviation of the Current Range [9]: 1.81 pA; Standard Deviation of the Noise of the Signal [9]: 0.22; Average Signal to Noise (S2N) [10]: 11; Mean Current Range [10]: 15 pA; Mean Noise of the Signal [10]: 1.36; Median Current Range [10]: 14.9 pA; Median Noise of the Signal [10]: 1.32; Median S2N [10]: 11.9; Percentage of complement slipping forwards [10]: 0.27%; Standard Deviation of S2N [10]: 1.17; Standard Deviation of the Current Range [10]: 1.72; Standard Deviation of the Noise of the Signal [10]: 0.23; Average Signal to Noise (S2N) [11]: 11.9; Mean Current Range [11]: 15.6 pA; Mean Noise of the Signal [11]: 1.31; Median Current Range [11]: 15.6 pA; Median Noise of the Signal [11]: 1.24; Standard Deviation of the Current Range [11]: 1.76; Standard Deviation of the Noise of the Signal [11]: 0.26; Average Signal to Noise (S2N) [12]: 11.4; Mean Current Range [12]: 15.5 pA; Mean Noise of the Signal [12]: 1.35; Median Current Range [12]: 15.8 pA; Median Noise of the Signal [12]: 1.35; Standard Deviation of the Current Range [12]: 2.23; Standard Deviation of the Noise of the Signal [12]: 0.14
